The experiment deals with natriuretic polypeptide receptor A (Npra), mouse (mouse) (UniProt P18293). The experiment can be described thus: cell-based or functional assay.
Chain of UniProt P18293 (P18293 29-1057 limits assumed): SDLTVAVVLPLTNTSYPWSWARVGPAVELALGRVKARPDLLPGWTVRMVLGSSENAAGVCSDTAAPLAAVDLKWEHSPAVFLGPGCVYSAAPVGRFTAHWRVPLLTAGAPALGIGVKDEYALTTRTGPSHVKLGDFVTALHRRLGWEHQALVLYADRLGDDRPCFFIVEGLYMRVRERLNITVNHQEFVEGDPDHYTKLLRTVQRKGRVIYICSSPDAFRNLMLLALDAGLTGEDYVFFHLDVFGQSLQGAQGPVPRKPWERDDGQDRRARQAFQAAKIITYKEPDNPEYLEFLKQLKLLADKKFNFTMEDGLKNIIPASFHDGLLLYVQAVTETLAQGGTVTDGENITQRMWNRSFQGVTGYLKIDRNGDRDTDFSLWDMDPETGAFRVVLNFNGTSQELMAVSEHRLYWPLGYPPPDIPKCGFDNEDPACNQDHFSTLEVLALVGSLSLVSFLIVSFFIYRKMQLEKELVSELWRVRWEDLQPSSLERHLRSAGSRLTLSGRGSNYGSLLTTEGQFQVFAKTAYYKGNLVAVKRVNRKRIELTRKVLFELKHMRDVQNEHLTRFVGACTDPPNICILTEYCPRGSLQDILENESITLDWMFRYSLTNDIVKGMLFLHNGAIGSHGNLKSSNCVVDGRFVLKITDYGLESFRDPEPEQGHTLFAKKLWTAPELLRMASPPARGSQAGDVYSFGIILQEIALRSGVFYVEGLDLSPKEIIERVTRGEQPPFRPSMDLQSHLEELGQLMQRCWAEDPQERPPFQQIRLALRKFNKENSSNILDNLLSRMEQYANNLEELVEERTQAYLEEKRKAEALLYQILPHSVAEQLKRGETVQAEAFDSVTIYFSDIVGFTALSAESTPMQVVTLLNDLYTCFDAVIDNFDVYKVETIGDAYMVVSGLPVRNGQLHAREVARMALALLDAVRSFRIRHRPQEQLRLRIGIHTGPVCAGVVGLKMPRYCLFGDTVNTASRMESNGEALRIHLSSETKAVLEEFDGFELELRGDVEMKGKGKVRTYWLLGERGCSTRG

Substance Nppb-saporin conjugate gave a Npra-positive spinal cord neurons eliminated after intrathecal injection (ISH cell counts) of 70%.

The values above are taken from patent US20170014486A1.
